Measurements reported in patent US11026999B2, “Insulin glargine/lixisenatide fixed ratio formulation” (SANOFI-AVENTIS DEUTSCHLAND GMBH, priority 2013, dated 2021).

System: type 2 diabetic patients
Assay: Treatment-emergent adverse events, SAEs, deaths, TEAEs leading to withdrawal (Example 1)
Details: Safety population
Procedure: Safety: The safety analysis was conducted on the safety population, defined as all randomized patients who received at least one dose of IMP (regardless of the amount of treatment administered). The evaluation of AEs, laboratory, vital sign, and ECG data was descriptive.

Gly(A21)-Arg(B31)-Arg(B32)-human insulin [Insulin Glargine]
6 (3.7%) n (%): TEAE: Diarrhoea (PT) | TEAE: Influenza (PT) | Patients with any treatment emergent SAE | TEAE: HLGT: Joint disorders | TEAE: HLT: Influenza viral infections | Patients with any treatment emergent SAE (listed as insulin glargine)
2 (1.2%) n (%): TEAE: Abdominal distension (PT) | TEAE: Back pain (PT) | TEAE: Conjunctivitis (PT) | TEAE: Contusion (PT) | TEAE: Cystitis (PT) | TEAE: Depression (PT) | TEAE: Diabetic neuropathy (PT) | TEAE: Hypertension (PT) | TEAE: Intervertebral disc disorder (PT) | TEAE: Nepbrolithiasis (PT) | TEAE: Oedema (PT) | TEAE: Osteoarthritis (PT) | TEAE: Presyncope (PT) | TEAE: Rhinitis (PT) | TEAE: Sciatica (PT) | TEAE: Tinnitus (PT) | TEAE: Tooth abscess (PT) | TEAE: Ear and labyrinth disorders (SOC) | TEAE: Psychiatric disorders (SOC) | TEAE: Renal and urinary disorders (SOC) | TEAE: HLGT: Depressed mood disorders and disturbances | TEAE: HLGT: Gastrointestinal investigations | TEAE: HLGT: Inner ear and VIIIth cranial nerve disorders | TEAE: HLGT: Musculoskeletal and connective tissue deformities (incl intervertebral disc disorders) | TEAE: HLGT: Peripheral neuropathies | TEAE: HLGT: Respiratory disorders NEC | TEAE: HLGT: Spinal cord and nerve root disorders | TEAE: HLGT: Urolithiases | TEAE: HLGT: Vascular hypertensive disorders | TEAE: HLT: Chronic polyneuropathies | TEAE: HLT: Depressive disorders | TEAE: HLT: Digestive enzymes | TEAE: HLT: Flatulence, bloating and distension | TEAE: HLT: Inner ear signs and symptoms | TEAE: HLT: Intervertebral disc disorders NEC | TEAE: HLT: Lumbar spinal cord and nerve root disorders | TEAE: HLT: Osteoarthropathies | TEAE: HLT: Renal lithiasis | TEAE: HLT: Vascular hypertensive disorders NEC
0 n (%): TEAE leading to permanent treatment discontinuation: Confusional state (PT) | TEAE leading to permanent treatment discontinuation: Dizziness (PT) | TEAE leading to permanent treatment discontinuation: Headache (PT) | TEAE leading to permanent treatment discontinuation: Nausea (PT) | TEAE leading to permanent treatment discontinuation: Ovarian cancer (PT) | TEAE leading to permanent treatment discontinuation: Vomiting (PT) | TEAE: Asthenia (PT) | TEAE: Constipation (PT) | TEAE: Cough (PT) | TEAE: Decreased appetite (PT) | TEAE: Fatigue (PT) | TEAE: Hypertriglyceridaemia (PT) | TEAE: Injection site pruritus (PT) | TEAE: Insomnia (PT) | TEAE: Nausea (PT) | TEAE: Pain in extremity (PT) | Treatment emergent SAE: Angina pectoris (PT) | Treatment emergent SAE: Angina unstable (PT) | Treatment emergent SAE: Bradycardia (PT) | Treatment emergent SAE: Calculus ureteric (PT) | Treatment emergent SAE: Cellulitis (PT) | Treatment emergent SAE: Diabetic neuropathy (PT) | Treatment emergent SAE: Intervertebral disc protrusion (PT) | Treatment emergent SAE: Ovarian cancer (PT) | Treatment emergent SAE: Pain in extremity (PT) | Treatment emergent SAE: Radius fracture (PT) | Treatment emergent SAE: Sciatica (PT) | TEAE leading to permanent treatment discontinuation: Hypersensitivity (PT, adjudicated as not allergic event by ARAC) | TEAE leading to permanent treatment discontinuation: Gastrointestinal disorders (SOC) | TEAE leading to permanent treatment discontinuation: Immune system disorders (SOC) | TEAE leading to permanent treatment discontinuation: Neoplasms benign, malignant and unspecified (incl cysts and polyps) (SOC) | TEAE leading to permanent treatment discontinuation: Nervous system disorders (SOC) | TEAE leading to permanent treatment discontinuation: Psychiatric disorders (SOC) | Treatment emergent SAE: Injury, poisoning and procedural complications (SOC) | Treatment emergent SAE: Neoplasms benign, malignant and unspecified (incl cysts and polyps) (SOC) | Treatment emergent SAE: Renal and urinary disorders (SOC) | Patients with any TEAE leading to death | Patients with any TEAE leading to permanent treatment discontinuation | TEAE leading to permanent treatment discontinuation: HLGT: Allergic conditions | TEAE leading to permanent treatment discontinuation: HLGT: Deliria (incl confusion) | TEAE leading to permanent treatment discontinuation: HLGT: Gastrointestinal signs and symptoms | TEAE leading to permanent treatment discontinuation: HLGT: Headaches | TEAE leading to permanent treatment discontinuation: HLGT: Neurological disorders NEC | TEAE leading to permanent treatment discontinuation: HLGT: Reproductive neoplasms female malignant and unspecified | TEAE leading to permanent treatment discontinuation: HLT: Allergic conditions NEC | TEAE leading to permanent treatment discontinuation: HLT: Confusion and disorientation | TEAE leading to permanent treatment discontinuation: HLT: Headaches NEC | TEAE leading to permanent treatment discontinuation: HLT: Nausea and vomiting symptoms | TEAE leading to permanent treatment discontinuation: HLT: Neurological signs and symptoms NEC | TEAE leading to permanent treatment discontinuation: HLT: Ovarian neoplasms malignant (excl germ cell) | TEAE: HLGT: Lipid metabolism disorders | TEAE: HLGT: Sleep disorders and disturbances | TEAE: HLT: Asthenic conditions | TEAE: HLT: Coughing and associated symptoms | TEAE: HLT: Disturbances in initiating and maintaining sleep | TEAE: HLT: Elevated triglycerides | Treatment emergent SAE: HLGT: Bacterial infectious disorders | Treatment emergent SAE: HLGT: Bone and joint injuries | Treatment emergent SAE: HLGT: Coronary artery disorders | Treatment emergent SAE: HLGT: Musculoskeletal and connective tissue deformities (incl intervertebral disc disorders) | Treatment emergent SAE: HLGT: Musculoskeletal and connective tissue disorders NEC | Treatment emergent SAE: HLGT: Peripheral neuropathies | Treatment emergent SAE: HLGT: Reproductive neoplasms female malignant and unspecified | Treatment emergent SAE: HLGT: Spinal cord and nerve root disorders | Treatment emergent SAE: HLGT: Urolithiases | Treatment emergent SAE: HLT: Bacterial infections NEC | Treatment emergent SAE: HLT: Chronic polyneuropathies | Treatment emergent SAE: HLT: Intervertebral disc disorders NEC | Treatment emergent SAE: HLT: Ischaemic coronary artery disorders | Treatment emergent SAE: HLT: Lumbar spinal cord and nerve root disorders | Treatment emergent SAE: HLT: Musculoskeletal and connective tissue pain and discomfort | Treatment emergent SAE: HLT: Ovarian neoplasms malignant (excl germ cell) | Treatment emergent SAE: HLT: Rate and rhythm disorders NEC | Treatment emergent SAE: HLT: Upper limb fractures and dislocations | Treatment emergent SAE: HLT: Urinary tract lithiasis (excl renal)
5 (3.1%) n (%): TEAE: General disorders and administration site conditions (SOC) | TEAE: Investigations (SOC) | TEAE: HLGT: Neurological disorders NEC | TEAE: HLT: Skin injuries NEC
20 (12.3%) n (%): TEAE: Nervous system disorders (SOC)
13 (8.0%) n (%): TEAE: Musculoskeletal and connective tissue disorders (SOC) | TEAE: HLGT: Headaches
12 (7.4%) n (%): TEAE: Headache (PT) | TEAE: HLT: Headaches NEC
82 (50.6%) n (%): Patients with any TEAE
11 (6.8%) n (%): TEAE: Injury, poisoning and procedural complications (SOC)
none: Patients with any TEAE leading to permanent treatment discontinuation (listed as insulin glargine)
3 (1.9%) n (%): TEAE: Arthralgia (PT) | TEAE: Laceration (PT) | TEAE: Sinusitis (PT) | TEAE: Vascular disorders (SOC) | TEAE: HLGT: Musculoskeletal and connective tissue disorders NEC | TEAE: HLT: Joint related signs and symptoms | TEAE: HLT: Musculoskeletal and connective tissue pain and discomfort | TEAE: HLT: Neurological signs and symptoms NEC | TEAE: HLT: Oedema NBC
7 (4.3%) n (%): TEAE: Eye disorders (SOC) | TEAE: HLGT: Gastrointestinal motility and defaecation conditions | TEAE: HLGT: Gastrointestinal signs and symptoms
4 (2.5%) n (%): TEAE: Respiratory, thoracic and mediastinal disorders (SOC) | TEAE: HLGT: General system disorders NEC
1 (0.6%) n (%): TEAE: Atrial fibrillation (PT) | TEAE: Bronchitis (PT) | TEAE: Dizziness (PT) | TEAE: Dyspepsia (PT) | TEAE: Gastroenteritis (PT) | TEAE: Lipase increased (PT) | TEAE: Musculoskeletal pain (PT) | TEAE: Vomiting (PT) | Treatment emergent SAE: Atrial fibrillation (PT) | Treatment emergent SAE: Depression (PT) | Treatment emergent SAE: ECG signs of myocardial ischaemia (PT) | Treatment emergent SAE: Osteoarthritis (PT) | Treatment emergent SAE: Presyncope (PT) | TEAE: Cardiac disorders (SOC) | TEAE: Metabolism and nutrition disorders (SOC) | Treatment emergent SAE: Cardiac disorders (SOC) | Treatment emergent SAE: Investigations (SOC) | Treatment emergent SAE: Musculoskeletal and connective tissue disorders (SOC) | Treatment emergent SAE: Nervous system disorders (SOC) | Treatment emergent SAE: Psychiatric disorders (SOC) | TEAE: HLGT: Administration site reactions | TEAE: HLGT: Appetite and general nutritional disorders | TEAE: HLGT: Cardiac arrhythmias | TEAE: HLT: Appetite disorders | TEAE: HLT: Dyspeptic signs and symptoms | TEAE: HLT: Gastrointestinal atonic and hypomotility disorders NEC | TEAE: HLT: Injection site reactions | TEAE: HLT: Lower respiratory tract and lung infections | TEAE: HLT: Nausea and vomiting symptoms | TEAE: HLT: Supraventricular arrhythmias | Treatment emergent SAE: HLGT: Cardiac and vascular investigations (excl enzyme tests) | Treatment emergent SAE: HLGT: Cardiac arrhythmias | Treatment emergent SAE: HLGT: Depressed mood disorders and disturbances | Treatment emergent SAE: HLGT: Joint disorders | Treatment emergent SAE: HLGT: Neurological disorders NEC | Treatment emergent SAE: HLT: Depressive disorders | Treatment emergent SAE: HLT: ECG investigations | Treatment emergent SAE: HLT: Neurological signs and symptoms NEC | Treatment emergent SAE: HLT: Osteoarthropathies | Treatment emergent SAE: HLT: Supraventricular arrhythmias
15 (9.3%) n (%): TEAE: Gastrointestinal disorders (SOC)
9 (5.6%) n (%): TEAE: Nasopharyngitis (PT) | TEAE: HLGT: Injuries NEC
